# Key:
# Assay in all cases: cell-based or functional assay
# [1] = target: HIV-1 92BR020 Env (HIV-1)
# [2] = target: HIV-1 92UG001 Env (HIV-1)
# [3] = target: HIV-1 92UG005 Env (HIV-1)
# [4] = target: HIV-1 94UG114 Env (HIV-1)
# [5] = target: HIV-1 97ZA012 Env on pseudovirus (HIV-1)
# [6] = target: HIV-1 APV-6 Env (HIV-1)
# [7] = target: HIV-1 APV_17 Env on pseudovirus (HIV-1)
# [8] = target: HIV-1 CAAN.A2 (Acute) Env on pseudovirus (HIV-1)
# [9] = target: HIV-1 JRCSF Env on pseudovirus (HIV-1) (UniProt P20871)
# [10] = target: HIV-1 LAVI_C22 Env on pseudovirus (HIV-1)
# [11] = target: HIV-1 LAVI_C3 Env on pseudovirus (HIV-1)
# [12] = target: HIV-1 MGRM-AE-001 Env (HIV-1)
# [13] = target: HIV-1 MGRM-AE-002 Env (HIV-1)
# [14] = target: HIV-1 MGRM-AE-004 Env (HIV-1)
# [15] = target: HIV-1 MGRM-AE-005 Env (HIV-1)
# [16] = target: HIV-1 MGRM-AG-001 Env (HIV-1)
# [17] = target: HIV-1 MGRM-AG-002 Env (HIV-1)
# [18] = target: HIV-1 MGRM-AG-006 Env (HIV-1)
# [19] = target: HIV-1 MGRM-AG-013 Env (HIV-1)
# [20] = target: HIV-1 MGRM-C-002 Env on pseudovirus (HIV-1)
# [21] = target: HIV-1 MGRM-C-005 Env on pseudovirus (HIV-1)
# [22] = target: HIV-1 MGRM-C-006 Env on pseudovirus (HIV-1)
# [23] = target: HIV-1 MGRM-C-010 Env on pseudovirus (HIV-1)
# [24] = target: HIV-1 MGRM-C-015 Env on pseudovirus (HIV-1)
# [25] = target: HIV-1 MGRM-C-017 Env on pseudovirus (HIV-1)
# [26] = target: HIV-1 MGRM-C-019 Env on pseudovirus (HIV-1)
# [27] = target: HIV-1 MGRM-Chronic-B-001 Env on pseudovirus (HIV-1)
# [28] = target: HIV-1 MGRM-Chronic-B-002 Env on pseudovirus (HIV-1)
# [29] = target: HIV-1 MGRM-Chronic-B-004 Env on pseudovirus (HIV-1)
# [30] = target: HIV-1 MGRM-Chronic-B-010 Env on pseudovirus (HIV-1)
# [31] = target: HIV-1 MGRM-Chronic-B-017 Env on pseudovirus (HIV-1)
# [32] = target: HIV-1 MGRM-Chronic-B-018 Env on pseudovirus (HIV-1)
# [33] = target: HIV-1 MGRM-Chronic-B-023 Env on pseudovirus (HIV-1)
# [34] = target: HIV-1 MGRM-Chronic-B-024 Env on pseudovirus (HIV-1)
# [35] = target: HIV-1 MGRM-D-001 Env (HIV-1)
# [36] = target: HIV-1 MGRM-D-005 Env (HIV-1)
# [37] = target: HIV-1 MGRM-D-008 Env (HIV-1)
# [38] = target: HIV-1 MGRM-D-018 Env (HIV-1)
# [39] = target: HIV-1 MGRM-D-019 Env (HIV-1)
# [40] = target: HIV-1 MGRM-D-022 Env (HIV-1)
# [41] = target: HIV-1 MGRM-D-029 Env (HIV-1)
# [42] = target: HIV-1 MGRM-F1-006 Env (HIV-1)
# [43] = target: HIV-1 MGRM-F1-012 Env (HIV-1)
# [44] = target: HIV-1 MGRM-F1-014 Env (HIV-1)
# [45] = target: HIV-1 MGRM-F1-017 Env (HIV-1)
# [46] = target: HIV-1 MGRM-F1-018 Env (HIV-1)
# [47] = target: HIV-1 MGRM-G-011 Env (HIV-1)
# [48] = target: HIV-1 MGRM-G-027 Env (HIV-1)
# [49] = target: HIV-1 PVO.4 (Acute) Env on pseudovirus (HIV-1)
# [50] = target: HIV-1 QH0692.42 (Acute) Env on pseudovirus (HIV-1)
# [51] = target: HIV-1 TRJ0.58 (Acute) Env on pseudovirus (HIV-1)
substance,measurement,setting,value
2F5 (antibody),neutralization IC50,[1],> 50 µg/mL
same,neutralization IC90,[1],> 50 µg/mL
same,"IC50 (µg/ml), pseudovirus neutralization",[2],13 µg/mL
same,"IC50 (µg/ml), pseudovirus neutralization",[3],8.61 µg/mL
same,neutralization IC50,[3],11.8 µg/mL
same,neutralization IC90,[3],> 50 µg/mL
same,"IC50 (µg/ml), pseudovirus neutralization",[4],> 50 µg/mL
same,IC50,[5],> 50 µg/mL
same,neutralization IC50,[6],0.1 µg/mL
same,IC50,[7],4.61 µg/mL
same,IC50,[8],23.1 µg/mL
same,IC50,[9],1.85 µg/mL
same,IC50,[10],> 50 µg/mL
same,IC50,[11],> 50 µg/mL
same,"IC50 (µg/ml), pseudovirus neutralization",[12],0.29 µg/mL
same,"IC50 (µg/ml), pseudovirus neutralization",[13],0.31 µg/mL
same,"IC50 (µg/ml), pseudovirus neutralization",[14],0.98 µg/mL
same,"IC50 (µg/ml), pseudovirus neutralization",[15],0.14 µg/mL
same,"IC50 (µg/ml), pseudovirus neutralization",[16],0.75 µg/mL
same,"IC50 (µg/ml), pseudovirus neutralization",[17],0.54 µg/mL
same,"IC50 (µg/ml), pseudovirus neutralization",[18],0.85 µg/mL
same,"IC50 (µg/ml), pseudovirus neutralization",[19],1.79 µg/mL
same,IC50,[20],44.7 µg/mL
same,IC50,[21],> 50 µg/mL
same,IC50,[22],> 50 µg/mL
same,IC50,[23],> 50 µg/mL
same,IC50,[24],> 50 µg/mL
same,IC50,[25],> 50 µg/mL
same,IC50,[26],> 50 µg/mL
same,IC50,[27],0.55 µg/mL
same,IC50,[28],1.25 µg/mL
same,IC50,[29],2.41 µg/mL
same,IC50,[30],0.96 µg/mL
same,IC50,[31],> 50 µg/mL
same,IC50,[32],10.8 µg/mL
same,IC50,[33],0.1 µg/mL
same,IC50,[34],> 50 µg/mL
same,"IC50 (µg/ml), pseudovirus neutralization",[35],0.63 µg/mL
same,"IC50 (µg/ml), pseudovirus neutralization",[36],> 50 µg/mL
same,"IC50 (µg/ml), pseudovirus neutralization",[37],> 50 µg/mL
same,"IC50 (µg/ml), pseudovirus neutralization",[38],4.05 µg/mL
same,"IC50 (µg/ml), pseudovirus neutralization",[39],0.14 µg/mL
same,"IC50 (µg/ml), pseudovirus neutralization",[40],8.45 µg/mL
same,"IC50 (µg/ml), pseudovirus neutralization",[41],> 50 µg/mL
same,IC50 (pseudovirus neutralization),[42],1.1 µg/mL
same,IC50 (pseudovirus neutralization),[43],> 50 µg/mL
same,IC50 (pseudovirus neutralization),[44],15.1 µg/mL
same,IC50 (pseudovirus neutralization),[45],> 50 µg/mL
same,IC50 (pseudovirus neutralization),[46],3.91 µg/mL
same,"IC50 (µg/ml), pseudovirus neutralization",[47],1.16 µg/mL
same,"IC50 (µg/ml), pseudovirus neutralization",[48],0.28 µg/mL
same,IC50,[49],> 50 µg/mL
same,IC50,[50],5.42 µg/mL
same,IC50,[51],> 50 µg/mL
2G12 (antibody),neutralization IC50,[1],2.26 µg/mL
same,neutralization IC90,[1],24.1 µg/mL
same,"IC50 (µg/ml), pseudovirus neutralization",[2],> 50 µg/mL
same,"IC50 (µg/ml), pseudovirus neutralization",[3],> 50 µg/mL
same,neutralization IC50,[3],> 50 µg/mL
same,neutralization IC90,[3],> 50 µg/mL
same,"IC50 (µg/ml), pseudovirus neutralization",[4],13.9 µg/mL
same,IC50,[5],> 50 µg/mL
same,neutralization IC50,[6],5.3 µg/mL
same,IC50,[7],> 50 µg/mL
same,IC50,[8],> 50 µg/mL
same,IC50,[9],0.37 µg/mL
same,IC50,[10],> 50 µg/mL
same,IC50,[11],> 50 µg/mL
same,"IC50 (µg/ml), pseudovirus neutralization",[12],> 50 µg/mL
same,"IC50 (µg/ml), pseudovirus neutralization",[13],> 50 µg/mL
same,"IC50 (µg/ml), pseudovirus neutralization",[14],> 50 µg/mL
same,"IC50 (µg/ml), pseudovirus neutralization",[15],> 50 µg/mL
same,"IC50 (µg/ml), pseudovirus neutralization",[16],0.69 µg/mL
same,"IC50 (µg/ml), pseudovirus neutralization",[17],0.54 µg/mL
same,"IC50 (µg/ml), pseudovirus neutralization",[18],3.92 µg/mL
same,"IC50 (µg/ml), pseudovirus neutralization",[19],0.95 µg/mL
same,IC50,[20],> 50 µg/mL
same,IC50,[21],> 50 µg/mL
same,IC50,[22],> 50 µg/mL
same,IC50,[23],> 50 µg/mL
same,IC50,[24],1.75 µg/mL
same,IC50,[25],> 50 µg/mL
same,IC50,[26],> 50 µg/mL
same,IC50,[27],0.08 µg/mL
same,IC50,[28],> 50 µg/mL
same,IC50,[29],8.65 µg/mL
same,IC50,[30],1.5 µg/mL
same,IC50,[31],> 50 µg/mL
same,IC50,[32],> 50 µg/mL
same,IC50,[33],0.16 µg/mL
same,IC50,[34],> 50 µg/mL
same,"IC50 (µg/ml), pseudovirus neutralization",[35],> 50 µg/mL
same,"IC50 (µg/ml), pseudovirus neutralization",[36],25.7 µg/mL
same,"IC50 (µg/ml), pseudovirus neutralization",[37],> 50 µg/mL
same,"IC50 (µg/ml), pseudovirus neutralization",[38],0.12 µg/mL
same,"IC50 (µg/ml), pseudovirus neutralization",[39],> 50 µg/mL
same,"IC50 (µg/ml), pseudovirus neutralization",[40],> 50 µg/mL
same,"IC50 (µg/ml), pseudovirus neutralization",[41],> 50 µg/mL
same,IC50 (pseudovirus neutralization),[42],> 50 µg/mL
same,IC50 (pseudovirus neutralization),[43],1.81 µg/mL
same,IC50 (pseudovirus neutralization),[44],> 50 µg/mL
same,IC50 (pseudovirus neutralization),[45],> 50 µg/mL
same,IC50 (pseudovirus neutralization),[46],> 50 µg/mL
same,"IC50 (µg/ml), pseudovirus neutralization",[47],> 50 µg/mL
same,"IC50 (µg/ml), pseudovirus neutralization",[48],> 50 µg/mL
same,IC50,[49],0.8 µg/mL
same,IC50,[50],4.39 µg/mL
same,IC50,[51],> 50 µg/mL

# Reference: patent US20160264649A1
